How the values were obtained:
[1] = molecular target: human IgG (Sigma) (human); assay: SPR (BIAcore); protein G layer on gold thin film, human IgG 100 ug/ml injected
[2] = molecular target: anti-human Kallikrein 3/PSA antibody (R&D systems); assay: SPR (BIAcore); protein G layer on gold thin film, anti-PSA antibody 0.5 ug/ml injected

change in surface plasmon resonance signal [1]: 1000 RU
change in surface plasmon resonance signal [2]: 114 RU
Substance: untagged Streptococcal protein G variant recombinant protein (B1 and B2 domains, not tagged with cysteine) (from UniProt P19909 313-497)

Source: patent US20100173430A1
